Here are results for ten molecules from US20160289298A1 (ACCELERON PHARMA, published 2016).

Positions count from the first letter of the chain named.

The labels stand for the following.
B1: BMP9 (ligand, UniProt Q9UK05 320-429, looked up)
chain: SAGAGSHCQKTSLRVNFEDIGWDSWIIAPKEYEAYECKGGCFFPLADDVTPTKHAIVQTLVHLKFPTKVGKACCVPTKLSPISVLYKDDMGVPTLKYHYEGMSVAECGCR
notes: also called GDF2
B2: GDF6 (ligand, UniProt Q6KF10 336-455, looked up)
chain: TAFASRHGKRHGKKSRLRCSKKPLHVNFKELGWDDWIIAPLEYEAYHCEGVCDFPLRSHLEPTNHAIIQTLMNSMDPGSTPPSCCVPTKLTPISILYIDAGNNVVYKQYEDMVVESCGCR
notes: also called BMP13
B3: single-arm ActRIIB-Fc:Fc heterodimeric protein complex (Fc fusion)
chain 1: GRGEAETRECIYYNANWELERTNQSGLERCEGEQDKRLHCYASWRNSSGTIELVKKGCWLDDFNCYDRQECVATEENPQVYFCCCEGNFCNERFTHLPEAGGPEVTYEPPPTAPTGGGTHTCPPCPAPELLGGPSVFLFPPKPKDTLMISRTPEVTCVVVDVSHEDPEVKFNWYVDGVEVHNAKTKPREEQYNSTYRVVSVLTVLHQDWLNGKEYKCKVSNKALPAPIEKTISKAKGQPREPQVYTLPPSRKEMTKNQVSLTCLVKGFYPSDIAVEWESNGQPENNYKTTPPVLKSDGSFFLYSKLTVDKSRWQQGNVFSCSVMHEALHNHYTQKSLSLSPGK
chain 2: SNTKVDKRVTGGGTHTCPPCPAPELLGGPSVFLFPPKPKDTLMISRTPEVTCVVVDVSHEDPEVKFNWYVDGVEVHNAKTKPREEQYNSTYRVVSVLTVLHQDWLNGKEYKCKVSNKALPAPIEKTISKAKGQPREPQVYTLPPSREEMTKNQVSLTCLVKGFYPSDIAVEWESNGQPENNYDTTPPVLDSDGSFFLYSDLTVDKSRWQQGNVFSCSVMHEALHNHYTQKSLSLSPGK
notes: C-terminal lysine optionally removed; also called single-arm ActRIIB-Fc heterodimeric complex
B4: single-arm ALK3-Fc:Fc heterodimeric protein complex (Fc fusion)
chain 1: GAQNLDSMLHGTGMKSDSDQKKSENGVTLAPEDTLPFLKCYCSGHCPDDAINNTCITNGHCFAIIEEDDQGETTLASGCMKYEGSDFQCKDSPKAQLRRTIECCRTNLCNQYLQPTLPPVVIGPFFDGSIRTGGGTHTCPPCPAPELLGGPSVFLFPPKPKDTLMISRTPEVTCVVVDVSHEDPEVKFNWYVDGVEVHNAKTKPREEQYNSTYRVVSVLTVLHQDWLNGKEYKCKVSNKALPAPIEKTISKAKGQPREPQVYTLPPSREEMTKNQVSLTCLVKGFYPSDIAVEWESNGQPENNYDTTPPVLDSDGSFFLYSDLTVDKSRWQQGNVFSCSVMHEALHNHYTQKSLSLSPG
chain 2: B3 chain 2 with E147K, D183K, D190K, D200K
notes: also called single-arm ALK3-Fc heterodimer
B5: activin B (ligand, UniProt P09529 293-407, looked up)
chain: GLECDGRTNLCCRQQFFIDFRLIGWNDWIIAPTGYYGNYCEGSCPAYLAGVPGSASSFHTAVVNQYRMRGLNPGTVNSCCIPTKLSTMSMLYFDDEYNIVKRDVPNMIVEECGCA
B6: ALK3-Fc homodimeric complex (Fc fusion, UniProt P36894 24-152, looked up)
chain: QNLDSMLHGTGMKSDSDQKKSENGVTLAPEDTLPFLKCYCSGHCPDDAINNTCITNGHCFAIIEEDDQGETTLASGCMKYEGSDFQCKDSPKAQLRRTIECCRTNLCNQYLQPTLPPVVIGPFFDGSIR
notes: also called homodimeric ALK3-Fc; not shown: linker and Fc portion of the homodimer
B7: GDF11 (ligand, UniProt O95390 299-407, looked up)
chain: NLGLDCDEHSSESRCCRYPLTVDFEAFGWDWIIAPKRYKANYCSGQCEYMFMQKYPHTHLVQQANPRGSAGPCCTPTKMSPINMLYFNDKQQIIYGKIPGMVVDRCGCS
notes: also called BMP11
B8: BMP10 (ligand, UniProt O95393 317-424, looked up)
chain: NAKGNYCKRTPLYIDFKEIGWDSWIIAPPGYEAYECRGVCNYPLAEHLTPTKHAIIQALVHLKNSQKASKACCVPTKLEPISILYLDKGVVTYKFKYEGMAVSECGCR
B9: BMP2 (ligand, UniProt P12643 283-396, looked up)
chain: QAKHKQRKRLKSSCKRHPLYVDFSDVGWNDWIVAPPGYHAFYCHGECPFPLADHLNSTNHAIVQTLVNSVNSKIPKACCVPTELSAISMLYLDENEKVVLKNYQDMVVEGCGCR
B10: BMPRII-Fc homodimeric complex (Fc fusion, UniProt Q13873 27-150, looked up)
chain: SQNQERLCAFKDPYQQDLGIGESRISHENGTILCSKGSTCYGLWEKSKGDINLVKQGCWSHIGDPQECHYEECVVTTTPPSIQNGTYRFCCCSTDLCNVNFTENFPPPDTTPLSPPHSFNRDET
notes: also called homodimeric BMPRII-Fc; not shown: linker and Fc portion of the homodimer

Assay [1] addresses B10. As to the kind of experiment: SPR (Biacore), receptor-Fc captured by anti-Fc antibody, ligand injected. As to the method:
(§1) Ligands were injected and allowed to flow over the captured receptor protein.
In general terms: Surface plasmon resonance follows binding to a sensor surface in real time, without labels.

Assay [2] deals with B5. As to the kind of experiment: SPR (Biacore), legend of FIG. 6. On the procedure: as §1
The target in assay [3] is T1, GDF8 (UniProt O14793 267-375).
T1 construct: also called myostatin
T1 sequence (looked up): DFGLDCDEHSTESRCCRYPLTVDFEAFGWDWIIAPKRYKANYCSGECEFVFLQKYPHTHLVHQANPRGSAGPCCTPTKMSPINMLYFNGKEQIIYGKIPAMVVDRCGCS
As to the kind of experiment: SPR (Biacore), legend of FIG. 6. On the procedure: as §1

For assay [4], the target named is T2, activin A (UniProt P08476 311-426).
T2 sequence (looked up): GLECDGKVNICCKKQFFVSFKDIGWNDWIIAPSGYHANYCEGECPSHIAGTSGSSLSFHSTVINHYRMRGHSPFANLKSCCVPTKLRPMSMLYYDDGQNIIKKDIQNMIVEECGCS
Description: SPR (Biacore), legend of FIG. 6. As to the method: as §1

The target in assay [5] is B7. Description: SPR (Biacore), legend of FIG. 6. As to the method: as §1
For assay [6], the target named is T3, BMP5 (UniProt P22003 317-454, limits assumed).
T3 sequence (looked up): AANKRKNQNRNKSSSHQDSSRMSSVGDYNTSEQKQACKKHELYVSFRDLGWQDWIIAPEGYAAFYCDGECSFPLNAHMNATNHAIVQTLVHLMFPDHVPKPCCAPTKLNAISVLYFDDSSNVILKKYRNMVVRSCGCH
Description: SPR (Biacore), receptor-Fc captured by anti-Fc antibody, ligand injected.

Assay [7] has as its target B9. The description is as above.
Assay [8] concerns the target T4, BMP4 (UniProt P12644 293-408).
T4 sequence (looked up): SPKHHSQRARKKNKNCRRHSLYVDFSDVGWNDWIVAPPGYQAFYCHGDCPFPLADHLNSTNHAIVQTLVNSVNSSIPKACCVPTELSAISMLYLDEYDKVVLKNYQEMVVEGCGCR
The description is as above.

Assay [9] deals with B6. The description is as above.
Assay [10] concerns the target T5, ActRIIA-Fc homodimeric complex (UniProt P27037 21-135).
T5 construct: also called homodimeric ActRIIA-Fc; not shown: linker and Fc portion of the homodimer
The description is as above.

Assay [11] deals with T6, BMP15 (UniProt O95972 268-392).
T6 construct: also called GDF9b
T6 sequence (looked up): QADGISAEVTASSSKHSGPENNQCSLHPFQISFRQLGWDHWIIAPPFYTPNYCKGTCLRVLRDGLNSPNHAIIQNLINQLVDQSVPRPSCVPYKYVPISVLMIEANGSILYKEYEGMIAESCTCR
The description is as above. On the procedure: as §1

Assay [12] addresses T7, BMP6 (UniProt P22004 382-513, limits assumed).
T7 sequence (looked up): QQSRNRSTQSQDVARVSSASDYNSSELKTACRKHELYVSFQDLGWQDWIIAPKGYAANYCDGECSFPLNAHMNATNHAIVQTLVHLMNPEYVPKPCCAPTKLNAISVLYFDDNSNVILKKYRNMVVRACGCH
Described as above. As to the method:
as §1

Assay [13] addresses T8, BMP7 (UniProt P18075 293-431).
T8 construct: also called OP-1
T8 sequence (looked up): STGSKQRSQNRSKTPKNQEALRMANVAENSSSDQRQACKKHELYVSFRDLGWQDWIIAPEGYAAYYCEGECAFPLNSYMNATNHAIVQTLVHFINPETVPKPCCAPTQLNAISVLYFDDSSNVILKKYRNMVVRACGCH
The assay is described as above. On the procedure:
as §1

T5 sequence (P27037 21-135, one chain of several): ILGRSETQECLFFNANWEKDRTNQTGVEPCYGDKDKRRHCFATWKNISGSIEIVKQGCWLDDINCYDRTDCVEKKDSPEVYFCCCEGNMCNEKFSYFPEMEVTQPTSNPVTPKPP

One may read the Kd as the constant that tells how readily two partners part at equilibrium. As a reminder, the koff is a measure of how fast the partners let go of each other. Read a high koff as fast dissociation. Usually kon stands for a measure of how fast the partners come together. Read a low kon as slow association. In assay [1], B1 had a Kd of 2.1 nM, an off-rate (koff) of 0.026 s⁻¹ and a kon of 1.2e+07 M⁻¹ s⁻¹.
In turn, B2 came in with a Kd in assay [1] greater than 88 nM.
For B3, the binding result in assay [2], in assay [3], in [4] and in assay [5] was “binds” throughout.
Turning to B4, the binding result in [6], in [7] and in assay [8] was “binds” each time.
Take B5: in assay [1], the dissociation constant (Kd) stood at 3.8 nM, the koff turned out to be 0.075 s⁻¹ and the kon is 2e+07 M⁻¹ s⁻¹.
For B6, the binding result in assay [6] is reported as “binds”.
As for B7, the binding result in [9] was “no binding”; in assay [10], “binds”.
In [1], B8 came in with a Kd of 0.098 nM, a koff of 0.0025 s⁻¹ and a kon of 2.6e+07 M⁻¹ s⁻¹. Moreover, in assay [9], the binding result was “no binding”. In addition, the binding result in [10] is “binds”.
As for B9, the dissociation constant (Kd) in assay [1] is greater than 2000 nM.
On to B10, for which the Kd in assay [11] is 0.28 nM; in [12], greater than 8.9 nM; in assay [13], greater than 38 nM. For the same molecule, the off-rate constant (koff) in assay [11] amounted to 0.0028 s⁻¹. In [11], this molecule showed an association rate constant (kon) of 9.9e+06 M⁻¹ s⁻¹.
